From PMC10904854, “A druggable conformational switch in the c-MYC transactivation domain” (Nature Communications, 2024) come the findings set out here.

For assay [1], the target named is T1, Recombinant human TATA binding protein (ab81897, Abcam) (human).
T1 construct: also called TBP; full-length, human TBP; source: bought: Abcam (ab81897)
T1 chain: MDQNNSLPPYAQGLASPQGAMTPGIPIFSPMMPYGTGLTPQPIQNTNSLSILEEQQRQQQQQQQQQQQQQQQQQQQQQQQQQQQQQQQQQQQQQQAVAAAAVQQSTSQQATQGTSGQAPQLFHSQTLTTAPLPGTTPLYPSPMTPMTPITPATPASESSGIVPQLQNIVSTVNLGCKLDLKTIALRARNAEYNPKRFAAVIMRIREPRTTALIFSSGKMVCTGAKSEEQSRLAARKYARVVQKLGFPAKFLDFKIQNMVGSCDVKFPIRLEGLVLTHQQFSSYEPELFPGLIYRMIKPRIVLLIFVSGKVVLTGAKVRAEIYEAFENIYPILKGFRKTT
Description: native MS; mixture of coreMYC (6) and full-length TBP (10; concentrations printed as mM), ammonium acetate (TBP exchanged into 1 M), no EGCG, sample cone 50 V. As to conditions: both partners purified.

The target in assay [2] is T2, TRRAP_(2038-2087) synthetic peptide (N-terminal acetyl (Ac-), C-terminal amide (-NH2)).
T2 construct: transformation/transcription domain-associated protein (TRRAP), residues 2038-2087; also called TRRAP peptide; source: synthetic peptide (GenScript)
T2 peptide: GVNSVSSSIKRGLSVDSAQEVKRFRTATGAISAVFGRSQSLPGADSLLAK
As to the kind of experiment: native MS; equimolar mixture, 15.5 uM coreMYC and 15 uM TRRAP_(2038-2087) peptide in 100 mM ammonium acetate, no EGCG, sample cone 10 V. As to conditions: both partners purified.

B1: MGHis6-coreMYC (c-MYC residues 101-150) (peptide)
chain: MVTELLGGDMVNQSFICDPDDETFIKNIIIQDCMWSGFSAAAKLVSEKLA
notes: c-MYC, residues 101-150 (coreMYC); Cloned into pET-26b(+); also called MYC_(101-150); COnformational REgulator of c-MYC; source: E. coli BL21 (DE3), purified in-house (solubilised from the pellet in urea, His SpinTrap column); not shown: MGHis6, N-terminal, kept
Regarding B1, the “stoichiometry N” value in assay [1] and in assay [2] was 1 in each case.
